From article PMC6457933 (Science Advances, 2019)
Blank lines part the entries; values can stand above or below the molecule they belong to.

Assays:
Assay in all cases: crystal structure
[1] = biological target: KR2 G263F mutant (Krokinobacter eikastus)
[2] = biological target: KR2 S254A mutant (Krokinobacter eikastus)
crystal structure = biological target: the molecule itself

stoichiometry N [1]: 5
Molecule: KR2 G263F mutant (natural protein)

stoichiometry N [2]: 5
Molecule: KR2 S254A mutant (natural protein)

B1: Krokinobacter eikastus rhodopsin 2 (KR2), wild type (natural protein)
chain: MTQELGNANFENFIGATEGFSEIAYQFTSHILTLGYAVMLAGLLYFILTIKNVDKKFQMSNILSAVVMVSAFLLLYAQAQNWTSSFTFNEEVGRYFLDPSGDLFNNGYRYLNWLIDVPMLLFQILFVVSLTTSKFSSVRNQFWFSGAMMIITGYIGQFYEVSNLTAFLVWGAISSAFFFHILWVMKKVINEGKEGISPAGQKILSNIWILFLISWTLYPGAYLMPYLTGVDGFLYSEDGVMARQLVYTIADVSSKVIYGVLLGNLAITLSKNKELVEANS
modifications: retinal covalently bound to Lys255 via the Schiff base
stoichiometry N (crystal structure): 5
